# Test results from article PMC5770238 (Science (New York, N.Y.), 2017).
# Where two headings read alike, the source gives them in different places.
# B1: FITC-labeled casein (natural protein)
# chain: RPKHPIKHQGLPQEVLNENLLRFFVAPFPEVFGKEKVNELSKDIGSESTEDQAMEDIKQMEAESISSSEEIVPNSVEQKHIQKEDVPSERYLGYLEQLLRLKKYKVPQLEIVPNSAEERLHSMKEGIHAQQKEPMIGVNQELAYFYPELFRQFYQLDAYPSGAWYYVPLGTQYTDAPSFSDIPNPIGSENSEKTTMPLW
# modifications: FITC label (site not stated)
# Tests used:
# Test in all cases: fluorescence polarisation
# [1] = target: T1, Hsp104 T317A (sensor 1 ATPase mutant in NBD1) (S. cerevisiae, UniProt P31539 1-908, T317A)
# T1 sequence (P31539 whole entry T317A): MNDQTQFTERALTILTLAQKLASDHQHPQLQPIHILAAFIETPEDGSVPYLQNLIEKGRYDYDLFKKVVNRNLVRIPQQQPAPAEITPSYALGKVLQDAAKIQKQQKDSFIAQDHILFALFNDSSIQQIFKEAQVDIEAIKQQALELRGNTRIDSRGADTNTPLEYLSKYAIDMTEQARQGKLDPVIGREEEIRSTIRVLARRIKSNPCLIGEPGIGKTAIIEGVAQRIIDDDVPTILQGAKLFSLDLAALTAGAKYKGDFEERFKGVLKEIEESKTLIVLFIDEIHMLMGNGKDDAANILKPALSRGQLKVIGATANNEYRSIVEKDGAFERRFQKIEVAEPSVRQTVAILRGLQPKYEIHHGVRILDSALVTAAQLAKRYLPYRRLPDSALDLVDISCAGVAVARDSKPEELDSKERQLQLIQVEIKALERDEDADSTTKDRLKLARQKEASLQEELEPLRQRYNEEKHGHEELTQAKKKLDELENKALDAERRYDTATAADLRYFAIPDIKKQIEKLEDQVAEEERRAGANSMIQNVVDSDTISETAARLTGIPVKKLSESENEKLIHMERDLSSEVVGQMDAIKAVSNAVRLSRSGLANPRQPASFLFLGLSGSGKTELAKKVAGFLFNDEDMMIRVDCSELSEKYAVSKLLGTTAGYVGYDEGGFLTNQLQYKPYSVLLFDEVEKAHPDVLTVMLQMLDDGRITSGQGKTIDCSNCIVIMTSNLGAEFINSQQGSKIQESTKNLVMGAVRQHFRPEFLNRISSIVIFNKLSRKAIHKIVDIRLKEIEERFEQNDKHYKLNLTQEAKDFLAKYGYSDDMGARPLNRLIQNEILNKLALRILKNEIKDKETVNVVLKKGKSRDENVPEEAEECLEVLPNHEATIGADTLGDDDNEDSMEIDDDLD
# [2] = target: T2, Hsp104 (S. cerevisiae AAA+ disaggregase), wild type (S. cerevisiae, UniProt P31539 1-908)
# T2 sequence (P31539 whole entry): as the sequence (P31539 whole entry T317A) above, with A317T counted along it
# [3] = target: T3, Hsp104 N728A (sensor 1 ATPase mutant in NBD2) (S. cerevisiae, UniProt P31539 1-908, N728A)
# T3 sequence (P31539 whole entry N728A): as the sequence (P31539 whole entry T317A) above, with A317T, N728A counted along it
# [4] = target: T1, Hsp104 T317A (sensor 1 ATPase mutant in …); remark: listed apart in the source
# [5] = target: T2, Hsp104 (S. cerevisiae AAA+ …); remark: listed apart in the source
# [6] = target: T3, Hsp104 N728A (sensor 1 ATPase mutant in …); remark: listed apart in the source
binder,measurement,setting,value
B1,Kd,[1],~1400 nM
same,Kd,[2],~20 nM
same,Kd,[3],16 to 20 nM
same,Kd,[4],> 2000 nM
same,Kd,[5],> 2000 nM
same,Kd,[6],~33 nM
